Assay results from article PMC11592734.

Tests used:
[1] = biological target: whole-length cardiac myosin isolated from mice hearts (mouse) (UniProt Q91Z83); test: co-sedimentation; whole-length cardiac myosin (10 µM) incubated with increasing concentration (0-10 µM) of hC0-C2; Michaelis-Menten binding fit
[2] = biological target: wild-type recombinant human cMyBP-C C0-C2 region (hC0-C2^WT) (human); test: ITC; 20 µM hC0-C2 titrated against 350 µM hS2; n = 3
[3] = biological target: recombinant human cMyBP-C C0-C2 region with D389V (hC0-C2^D389V) (human); test: solid-phase binding assay; 20 µM hC0-C2 incubated with increasing concentrations of hS2 (0-20 µM); binding of hS2 read by fluorescence intensity; Michaelis-Menten binding fit; n = 3
[4] = biological target: wild-type recombinant human cMyBP-C C0-C2 region (hC0-C2^WT) (human); test: as above

Sequence of UniProt Q91Z83 (Q91Z83 whole entry, chain 1 of 3): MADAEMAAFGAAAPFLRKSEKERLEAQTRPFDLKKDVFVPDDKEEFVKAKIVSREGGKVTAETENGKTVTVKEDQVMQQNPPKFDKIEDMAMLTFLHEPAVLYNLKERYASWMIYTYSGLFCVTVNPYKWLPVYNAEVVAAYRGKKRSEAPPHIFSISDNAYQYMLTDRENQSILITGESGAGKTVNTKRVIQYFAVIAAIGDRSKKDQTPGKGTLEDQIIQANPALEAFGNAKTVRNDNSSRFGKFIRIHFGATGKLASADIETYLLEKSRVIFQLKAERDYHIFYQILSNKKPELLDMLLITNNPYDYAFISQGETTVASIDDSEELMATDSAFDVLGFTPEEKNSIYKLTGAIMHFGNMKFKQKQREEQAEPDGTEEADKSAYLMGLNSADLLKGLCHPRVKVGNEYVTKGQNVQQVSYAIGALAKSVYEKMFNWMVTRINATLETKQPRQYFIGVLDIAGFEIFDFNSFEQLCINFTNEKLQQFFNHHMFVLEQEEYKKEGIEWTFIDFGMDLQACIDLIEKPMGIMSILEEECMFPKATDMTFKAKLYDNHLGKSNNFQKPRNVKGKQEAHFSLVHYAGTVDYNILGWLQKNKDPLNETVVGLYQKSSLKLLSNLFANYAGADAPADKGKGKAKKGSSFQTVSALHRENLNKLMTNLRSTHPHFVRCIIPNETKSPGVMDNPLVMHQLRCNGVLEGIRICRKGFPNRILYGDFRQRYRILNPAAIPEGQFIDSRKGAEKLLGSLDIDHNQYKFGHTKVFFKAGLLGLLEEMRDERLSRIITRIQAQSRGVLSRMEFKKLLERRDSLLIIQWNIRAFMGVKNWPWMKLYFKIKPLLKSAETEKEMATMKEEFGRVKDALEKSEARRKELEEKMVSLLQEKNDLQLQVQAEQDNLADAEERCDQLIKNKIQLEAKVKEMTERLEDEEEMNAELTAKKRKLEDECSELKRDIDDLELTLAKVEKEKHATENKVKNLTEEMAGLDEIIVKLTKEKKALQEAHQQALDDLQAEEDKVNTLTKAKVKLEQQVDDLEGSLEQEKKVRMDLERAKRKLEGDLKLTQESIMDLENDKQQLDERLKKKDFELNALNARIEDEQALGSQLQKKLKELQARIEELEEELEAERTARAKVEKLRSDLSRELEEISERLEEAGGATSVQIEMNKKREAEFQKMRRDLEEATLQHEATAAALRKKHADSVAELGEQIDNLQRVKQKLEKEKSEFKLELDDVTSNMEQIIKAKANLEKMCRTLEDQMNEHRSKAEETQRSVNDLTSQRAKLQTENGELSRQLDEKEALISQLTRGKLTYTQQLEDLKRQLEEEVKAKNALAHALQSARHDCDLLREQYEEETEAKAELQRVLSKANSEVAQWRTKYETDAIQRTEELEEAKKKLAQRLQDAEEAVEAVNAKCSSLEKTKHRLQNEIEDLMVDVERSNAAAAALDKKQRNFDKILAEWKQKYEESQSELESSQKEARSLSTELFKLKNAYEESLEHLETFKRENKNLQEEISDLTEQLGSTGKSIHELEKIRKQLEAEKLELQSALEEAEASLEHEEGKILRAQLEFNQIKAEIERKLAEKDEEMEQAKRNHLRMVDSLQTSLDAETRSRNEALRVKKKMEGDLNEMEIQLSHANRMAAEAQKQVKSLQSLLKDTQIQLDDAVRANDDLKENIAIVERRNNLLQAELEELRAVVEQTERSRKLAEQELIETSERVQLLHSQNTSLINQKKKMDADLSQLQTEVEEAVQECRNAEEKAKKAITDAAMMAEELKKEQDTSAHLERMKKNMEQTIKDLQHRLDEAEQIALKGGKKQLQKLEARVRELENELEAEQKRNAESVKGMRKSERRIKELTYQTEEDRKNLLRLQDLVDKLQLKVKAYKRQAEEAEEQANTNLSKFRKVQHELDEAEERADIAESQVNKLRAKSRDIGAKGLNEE
Sequence of UniProt Q91Z83 (P09542 2-204, chain 2 of 3, further chain): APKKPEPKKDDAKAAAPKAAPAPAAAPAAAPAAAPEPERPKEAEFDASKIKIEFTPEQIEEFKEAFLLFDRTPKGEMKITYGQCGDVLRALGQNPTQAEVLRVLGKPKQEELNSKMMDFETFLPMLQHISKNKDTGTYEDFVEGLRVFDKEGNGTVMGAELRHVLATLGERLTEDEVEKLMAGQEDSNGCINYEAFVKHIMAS
Sequence of UniProt Q91Z83 (P51667 2-166, chain 3 of 3, further chain): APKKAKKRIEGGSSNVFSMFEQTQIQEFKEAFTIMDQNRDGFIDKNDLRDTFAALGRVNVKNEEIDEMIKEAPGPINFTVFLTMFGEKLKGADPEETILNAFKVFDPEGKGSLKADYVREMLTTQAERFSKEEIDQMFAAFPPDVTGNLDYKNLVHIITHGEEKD

Kd [1]	stoichiometry N [2]	Kd [3]	Kd [4]	Substance
900 nM				recombinant human cMyBP-C C0-C2 region with D389V (hC0-C2^D389V) (domain or fragment)
	0.96	4730 nM	4950 nM	recombinant proximal (126 residues) human myosin S2 (hS2) (domain or fragment)
840 nM				wild-type recombinant human cMyBP-C C0-C2 region (hC0-C2^WT) (domain or fragment)
